Laboratory results reported in patent US20130101605A1.
pKd: −log10 of the molar value.

What was measured:
[1] = target: mouse Neogenin expressed on COS-7 cells (mouse) (UniProt P97798); experiment: AP fusion binding to transfected COS-7 cells, saturation and Scatchard analysis
[2] = target: DCC (Deleted in Colorectal Cancer) expressed on COS-7 cells; experiment: RGM-AP binding to transfected COS-7 cells
[3] = target: RGM of chick tectal membranes (chick) (UniProt Q8JG54); experiment: cell-based or functional assay
Sequence of UniProt Q8JG54 (Q8JG54 150-404 limits assumed): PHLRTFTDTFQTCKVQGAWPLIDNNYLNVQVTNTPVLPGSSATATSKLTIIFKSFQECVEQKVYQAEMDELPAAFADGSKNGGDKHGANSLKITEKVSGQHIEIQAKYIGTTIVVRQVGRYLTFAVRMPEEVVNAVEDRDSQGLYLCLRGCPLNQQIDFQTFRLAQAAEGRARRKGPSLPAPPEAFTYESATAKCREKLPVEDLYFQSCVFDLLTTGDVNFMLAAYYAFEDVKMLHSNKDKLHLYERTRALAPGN

Sequence of UniProt P97798 (P97798 37-1492): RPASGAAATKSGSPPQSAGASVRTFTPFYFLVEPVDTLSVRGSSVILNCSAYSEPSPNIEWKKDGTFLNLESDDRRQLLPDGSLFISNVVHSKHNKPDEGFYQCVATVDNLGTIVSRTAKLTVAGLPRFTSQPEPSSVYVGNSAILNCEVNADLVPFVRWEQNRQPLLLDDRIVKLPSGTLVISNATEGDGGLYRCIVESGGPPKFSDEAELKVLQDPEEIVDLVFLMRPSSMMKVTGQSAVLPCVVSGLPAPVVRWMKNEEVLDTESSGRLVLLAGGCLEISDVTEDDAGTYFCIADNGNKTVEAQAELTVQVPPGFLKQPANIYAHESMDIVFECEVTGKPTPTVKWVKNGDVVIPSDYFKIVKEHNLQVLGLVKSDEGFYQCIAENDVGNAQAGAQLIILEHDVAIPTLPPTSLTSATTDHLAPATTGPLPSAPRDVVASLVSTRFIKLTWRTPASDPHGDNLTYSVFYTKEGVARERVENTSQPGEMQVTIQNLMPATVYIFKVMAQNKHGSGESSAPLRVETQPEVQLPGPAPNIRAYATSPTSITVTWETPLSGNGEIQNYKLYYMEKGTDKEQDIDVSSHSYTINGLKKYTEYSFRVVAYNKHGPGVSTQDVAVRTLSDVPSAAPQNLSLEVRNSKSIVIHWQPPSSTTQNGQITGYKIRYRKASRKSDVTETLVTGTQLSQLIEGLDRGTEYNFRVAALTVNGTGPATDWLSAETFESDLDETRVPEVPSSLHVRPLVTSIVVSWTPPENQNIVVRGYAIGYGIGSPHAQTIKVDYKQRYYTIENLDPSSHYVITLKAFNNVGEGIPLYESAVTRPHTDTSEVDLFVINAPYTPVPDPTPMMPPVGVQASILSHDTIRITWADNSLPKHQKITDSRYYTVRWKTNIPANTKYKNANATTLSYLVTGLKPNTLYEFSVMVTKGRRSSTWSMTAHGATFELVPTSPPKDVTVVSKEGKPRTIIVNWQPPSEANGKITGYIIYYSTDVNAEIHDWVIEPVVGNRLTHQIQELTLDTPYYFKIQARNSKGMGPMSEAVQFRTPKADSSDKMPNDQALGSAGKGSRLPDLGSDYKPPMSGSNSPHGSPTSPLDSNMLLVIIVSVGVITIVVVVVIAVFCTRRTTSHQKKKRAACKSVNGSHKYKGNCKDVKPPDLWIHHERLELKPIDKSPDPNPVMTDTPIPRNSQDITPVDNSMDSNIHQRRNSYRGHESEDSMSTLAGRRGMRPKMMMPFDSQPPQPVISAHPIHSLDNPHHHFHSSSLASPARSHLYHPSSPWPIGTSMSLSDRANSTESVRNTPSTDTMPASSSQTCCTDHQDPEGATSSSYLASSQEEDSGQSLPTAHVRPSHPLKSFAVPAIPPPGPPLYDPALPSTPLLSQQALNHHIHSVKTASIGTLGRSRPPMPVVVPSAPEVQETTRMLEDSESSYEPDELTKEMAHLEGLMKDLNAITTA

Row | pKd [1] | fold lower affinity than for Neogenin [2] [fold] | retinotectal stripe assay: blockade of retinal axon stripe preference [3] [nM] | Substance
1 | 9.64 | 50 |  | chick RGM-AP fusion protein (chick RGM aa 28 to 403 fused to human placental alkaline phosphatase, carboxy-terminal Myc His tag) (from UniProt Q8JG54 28-403; P05187 23-511) (ligand)
2 |  |  | 400 | Soluble ectodomain of chick Neogenin-1 (1-1027) with a carboxyl MycHis tag (from UniProt Q90610 1-1027) (receptor)
